Usually EC50 stands for the concentration giving half of the maximal effect. High values mean a need for much substance, low ones an effect from little substance. As usually defined, the Kd is the equilibrium constant for the complex coming apart.

The source of these data is patent EP4696714A1, “PREPARATION METHOD FOR NANOBODY TARGETING TISSUE FACTOR AND CONJUGATE AND USE THEREOF” (Fudan University, priority 2023, dated 2024).

Positions count from the first letter of the chain named.

To fix the notation:
B1: 5-C12-FC1-MMAE (5-C12-FC1 coupled to mc-vc-MMAE) (Fc fusion)
chain: QVQLVESGGGLAQAGGSLRLSCAGSGRTFSTDAMGWFRQAPGKEREFVAAINWSGGSTYYADSVKGRFTISRDNAKNTVYLQMNSVKPEDTAVYYCVADSLLALLDGSRGGPGTDSDSWGQGTQVTVSSEPKSSDKTHTCPPCPAPEFEGGPSVFLFPPKPKDTLMISRTPEVTCVVVDVSHEDPEVKFNWYVDGVEVHNAKTKPREEQYNSTYRVVSVLTVLHQDWLNGKEYKCKVSNKALPASIEKTISKAKGQPREPQVYTLPPSRDELTKNQVSLTCLVKGFYPSDIAVEWESNGQPENNYKTTPPVLDSDGSFFLYSKLTVDKSRWQQGNVFSCSVMHEALHNHYTQKSLSLSPGK
modifications: mc-vc-MMAE coupled to cysteine thiols after TCEP reduction; DAR4 about 66.2% and DAR2 about 21.9% by HIC; positions not given
B2: 4-C08-FC1-MMAE (4-C08-FC1 coupled to mc-vc-MMAE) (Fc fusion)
chain: DVQLVESGGGLVQPGGSLRLSCAVSGFSLSSYDMNWYRQGPGKEREWVANIHSSGGYPDYADAVKGRFTISRDNAKNMVYLQMNSLKPEDTAVYYCNLPPSRRWYKDYWGQGTQVTVSSEPKSSDKTHTCPPCPAPEFEGGPSVFLFPPKPKDTLMISRTPEVTCVVVDVSHEDPEVKFNWYVDGVEVHNAKTKPREEQYNSTYRVVSVLTVLHQDWLNGKEYKCKVSNKALPASIEKTISKAKGQPREPQVYTLPPSRDELTKNQVSLTCLVKGFYPSDIAVEWESNGQPENNYKTTPPVLDSDGSFFLYSKLTVDKSRWQQGNVFSCSVMHEALHNHYTQKSLSLSPGK
modifications: mc-vc-MMAE coupled to cysteine thiols after TCEP reduction; DAR4 about 41.8% and DAR2 about 42.7% by HIC; positions not given
B3: 4-A02-FC1-MMAE (4-A02-FC1 coupled to mc-vc-MMAE) (Fc fusion)
chain: QVQLVESGGGLVQPGGSLSLSCTASETISSTYIMGWHRRSPGKERELVAVISGDGVTHYADFVKGRFVISRDNAKNAVYLKMNFLTPEDTAVYYCYAAGRWNHWGQGTQVTVSSEPKSSDKTHTCPPCPAPEFEGGPSVFLFPPKPKDTLMISRTPEVTCVVVDVSHEDPEVKFNWYVDGVEVHNAKTKPREEQYNSTYRVVSVLTVLHQDWLNGKEYKCKVSNKALPASIEKTISKAKGQPREPQVYTLPPSRDELTKNQVSLTCLVKGFYPSDIAVEWESNGQPENNYKTTPPVLDSDGSFFLYSKLTVDKSRWQQGNVFSCSVMHEALHNHYTQKSLSLSPGK
modifications: mc-vc-MMAE coupled to cysteine thiols after TCEP reduction; target DAR 4 for the dimer (about 95% DAR4 by HIC); positions not given
B4: 4-E04-FC1-MMAE (4-E04-FC1 coupled to mc-vc-MMAE) (Fc fusion)
chain: B3 chain with Q1A, T23A, T27M, H37Y, A60G, V68A, A74V, Y96N, W101R
modifications: mc-vc-MMAE coupled to cysteine thiols after TCEP reduction; the coupling did not complete and the proportion of coupling products was very low; positions not given
B5: F1-A01-FC1-MMAE (F1-A01-FC1 coupled to mc-vc-MMAE) (Fc fusion)
chain: EVQLVESGGGLVQAGGSLRLSCAASGRAFSAYAMGWFRQAPGKEREFVAAISWSGGSTYYADSVRGRFTISRDNTKNTVYLQMNSLKPEDTAVYYCNADSLLSLLDGSRGGPGTDSGSWGQGTQVTVSSEPKSSDKTHTCPPCPAPEFEGGPSVFLFPPKPKDTLMISRTPEVTCVVVDVSHEDPEVKFNWYVDGVEVHNAKTKPREEQYNSTYRVVSVLTVLHQDWLNGKEYKCKVSNKALPASIEKTISKAKGQPREPQVYTLPPSRDELTKNQVSLTCLVKGFYPSDIAVEWESNGQPENNYKTTPPVLDSDGSFFLYSKLTVDKSRWQQGNVFSCSVMHEALHNHYTQKSLSLSPGK
modifications: mc-vc-MMAE coupled to cysteine thiols after TCEP reduction; target DAR 4 (about 91% DAR4 by HIC); positions not given
B6: 4-C05-FC1-MMAE (4-C05-FC1 coupled to mc-vc-MMAE) (Fc fusion)
chain: QVQLVESGGGLVQPGGSLRLSCAASGFTLDTYAIGWIRQAPGKEREGVSCISSTDGSTYYAASVKGRFTINRDNAKNTVYLQMNSLKPEDTAVYYCAAGPGTDCPLRFDYWGQGIQVTVSSEPKSSDKTHTCPPCPAPEFEGGPSVFLFPPKPKDTLMISRTPEVTCVVVDVSHEDPEVKFNWYVDGVEVHNAKTKPREEQYNSTYRVVSVLTVLHQDWLNGKEYKCKVSNKALPASIEKTISKAKGQPREPQVYTLPPSRDELTKNQVSLTCLVKGFYPSDIAVEWESNGQPENNYKTTPPVLDSDGSFFLYSKLTVDKSRWQQGNVFSCSVMHEALHNHYTQKSLSLSPGK
modifications: mc-vc-MMAE coupled to cysteine thiols after TCEP reduction; target DAR 4; positions not given
B7: 4-A02-FC1-DXd (4-A02-FC1 coupled to GGFG-DXd) (Fc fusion)
chain: B3 chain
modifications: GGFG-DXd coupled to cysteine thiols after TCEP reduction; DAR 4; positions not given
B8: 4-A02-ABD-MMAE (4-A02-ABD coupled to mc-vc-MMAE) (other)
chain: QVQLVESGGGLVQPGGSLSLSCTASETISSTYIMGWHRRSPGKERELVAVISGDGVTHYADFVKGRFVISRDNAKNAVYLKMNFLTPEDTAVYYCYAAGRWNHWGQGTQVTVSSGGGGSGGGGSGGGGSQHDEAVDANSLAEAKVLANRELDKYGVSDYYKNLINNAKTVEGVKALIDEILAALPAAACAAAHHHHHH
modifications: mc-vc-MMAE coupled to a cysteine thiol after TCEP reduction; DAR 1; position not stated
B9: 5-C12-FC1 (chimeric nanobody: 5-C12 VHH fused with human Fc mutant fragment FC1) (Fc fusion)
chain: B1 chain
notes: built from the VHH and FC1
B10: 4-C08-FC1 (chimeric nanobody: 4-C08 VHH fused with human Fc mutant fragment FC1) (Fc fusion)
chain: B2 chain
notes: built from the VHH and FC1
B11: 4-A02-FC1 (chimeric nanobody: 4-A02 VHH fused with human Fc mutant fragment FC1) (Fc fusion)
chain: B3 chain
notes: VHH-Fc fusion expressed in HEK293; also called chimeric antibody 4-A02
B12: 4-E04-FC1 (chimeric nanobody: 4-E04 VHH fused with human Fc mutant fragment FC1) (Fc fusion)
chain: B3 chain with Q1A, T23A, T27M, H37Y, A60G, V68A, A74V, Y96N, W101R
notes: built from the VHH and FC1
B13: 4-C05-FC1 (chimeric nanobody: 4-C05 VHH fused with human Fc mutant fragment FC1) (Fc fusion)
chain: B6 chain
notes: built from the VHH and FC1

The first assay addresses T1, TF on the surface of tumor cells (MDA-MB-231, HPAF-II, HCC1806, BxPC3, HCC44, PC9, H1975 and other … (UniProt P13726 33-295, limits assumed)). As to the kind of experiment: cell-based or functional assay.
Consider B1, for which the “Cell proliferation inhibition IC50, BxPC3 cells (MTS)” value amounted to 5 ng/mL; the “Cell proliferation inhibition IC50, HCC1806 cells (MTS)” value is 26 ng/mL; the “Cell proliferation inhibition IC50, HPAF-II cells (MTS)” value came out at 12 ng/mL.
The matching figures for B2: 0.7 ng/mL, 0.5 ng/mL and 1 ng/mL.
Turning to B3, the “Cell proliferation inhibition IC50, BxPC3 cells (MTS)” value turned out to be 0.1 ng/mL; the “Cell proliferation inhibition IC50, HCC1806 cells (MTS)” value is 0.1 ng/mL; the “Cell proliferation inhibition IC50, HPAF-II cells (MTS)” value turned out to be 0.7 ng/mL.
Consider B4, for which the “Cell proliferation inhibition IC50, BxPC3 cells (MTS)” value amounted to 28.8 ng/mL; the “Cell proliferation inhibition IC50, HCC1806 cells (MTS)” value was determined as 32.6 ng/mL; the “Cell proliferation inhibition IC50, HPAF-II cells (MTS)” value was 24.3 ng/mL.
As to B5, the “Cell proliferation inhibition IC50, BxPC3 cells (MTS)” value turned out to be 1.2 ng/mL; the “Cell proliferation inhibition IC50, HCC1806 cells (MTS)” value was 4 ng/mL; the “Cell proliferation inhibition IC50, HPAF-II cells (MTS)” value is 0.7 ng/mL.
As to B6, the “Cell proliferation inhibition IC50, BxPC3 cells (MTS)” value was 8.6 ng/mL; the “Cell proliferation inhibition IC50, HCC1806 cells (MTS)” value turned out to be 14 ng/mL; the “Cell proliferation inhibition IC50, HPAF-II cells (MTS)” value was 7.7 ng/mL.

The next assay has as its target T1, TF on the surface of tumor cells …. The assay is described as follows: cell-based or functional assay. This is another data set of the same source.
B3: the “Cell proliferation inhibition IC50, BxPC3 cells (MTS)” value was found to be 0.8 ng/mL; the “Cell proliferation inhibition IC50, H1975 cells (MTS)” value is 2.2 ng/mL; the “Cell proliferation inhibition IC50, HCC44 cells (MTS)” value is 2.2 ng/mL; the “Cell proliferation inhibition IC50, HPAF-II cells (MTS)” value was 0.2 ng/mL. The “Cell proliferation inhibition IC50, PC9 cells (MTS)” value was determined as 0.4 ng/mL.
Regarding B7, the “Cell proliferation inhibition IC50, BxPC3 cells (MTS)” value amounted to 2.5 ng/mL; the “Cell proliferation inhibition IC50, H1975 cells (MTS)” value is more than 15000 ng/mL; the “Cell proliferation inhibition IC50, HCC44 cells (MTS)” value came out at 19.1 ng/mL; the “Cell proliferation inhibition IC50, HPAF-II cells (MTS)” value came to 2.4 ng/mL. Also, the “Cell proliferation inhibition IC50, PC9 cells (MTS)” value was 5630 ng/mL.
The matching figures for B8: 0.3 ng/mL, 163 ng/mL, 79.4 ng/mL, 1.3 ng/mL and 5 ng/mL.

The target is the same in the next assay. The assay is described as follows: flow cytometry on MDA-MB-231 cells, PE-labeled secondary antibody. (In flow cytometry, cells or beads pass a laser one at a time.)
Molecule B9 returned an EC50 of 470 ng/mL.
B10 yielded an EC50 of 50 ng/mL.
For the molecule B11, a half-maximal effect (EC50) was put at 80 ng/mL.
On to B12, for which the EC50 was 130 ng/mL.
B13 gave an EC50 of 700 ng/mL.

In the next assay the target is T2, human TF extracellular domain protein (TF-ECD, Met 1-Glu 251) (human, UniProt P13726 33-251).
T2 construct: range 1-251; also called human TF-ECD; not shown: His tag (protein captured on an NTA sensor as 'FDYKSD-01-His')
As to the kind of experiment: ForteBio OCTET R2; His-tagged antigen on NTA sensor, nanobody-Fc 25-1.56 nM in solution, 25°C. A general note: BLI is a label-free optical method that tracks binding on a fibre tip over time.
Regarding B9, the affinity, expressed as Kd, was 0.001 nM.
The same measure, in the same setting: the same measure for B11: 2.09 nM; for B12: 7.04 nM; for B13: 0.2 nM.
